We go through one molecule from paper PMC10928576, “Cpne7 deficiency induces cellular senescence and premature aging of dental pulp” (Aging Cell, 2023).

The test system of assay [1] is hDPCs. Nature of the assay: γ-H2AX / P21 western blot in H2O2-treated hDPCs. The note with it: H2O2 + rCPNE7, after 48 h, vs H2O2 only. It counts as cell-based, human. On the procedure: Cellular proteins (30 μg) were separated by 10% or 15% sodium dodecyl sulfate‐polyacrylamide gel electrophoresis (SDS‐PAGE) and transferred to polyvinylidene fluoride (PVDF) membranes. The PVDF membranes were blocked for 1 h with 5% nonfat dry milk in Tris‐buffered saline containing 0.1% Tween 20 (TBS‐T) and incubated overnight at 4°C with the primary antibody diluted in TBS‐T (1:5000). After washing, membranes were incubated for 1 h with the appropriate secondary antibodies. Labeled protein bands were detected under an enhanced chemiluminescence system (Amersham Biosciences/GE Healthcare). All reactions were performed in triplicate. Semi‐quantitative analyses were performed using Image J software (National Institute of Health, MD, USA) (n = 3, each group).
(A western blot detects proteins with antibodies after separation by electrophoresis.)

Assay [2] deals with periodontal ligament stem cells (PDLSCs). Nature of the assay: Mouse subcutaneous ex vivo transplantation (HA/TCP, PCL), PDLSCs. It counts as in vivo, immunocompromised mice. On the procedure:
(§1) The hDPCs, ADSCs, BMSCs, GFs, and PDLSCs (2 × 10^6) were mixed with 100 mg of hydroxyapatite/tricalcium phosphate ceramic powder (Zimmer) alone or with rCPNE7 (100 ng/mL) in an 0.5% fibrin gel. The poly ε‐caprolactone (PCL: Mw 80,000, Sigma–Aldrich, Oakville, ON, Canada) was wrapped around the mixed cells and transplanted subcutaneously into immunocompromised mice (NIHbg‐nu‐xid; Harlan Laboratories) for 6 weeks (n = 3, each group).
(§2) Figure S1. (A) The gingival fibroblasts (GFs) or (B) periodontal ligament stem cells (PDLSCs) were mixed with 100㎎ of hydroxyapatite/tricalcium phosphate (HA) particles alone (control) or with rCPNE7 in a poly ε-caprolactone (PCL) spaces and transplanted subcutaneously into immunocompromised mice for 6 weeks. White arrows indicate newly formed mineralized tissues. Representative immunofluorescence images of DSP (red) were observed (n=3). DAPI (blue) was counterstained to indicate the nucleus. Scale bars: 50㎛.

For assay [3], the system named is hDPCs. The assay is described as follows: Live-cell imaging of intracellular ROS (DCFDA). Type of assay: cell-based, human. The note with it: rCPNE7 treatment 15 min after H2O2 treatment, n = 3. Here is the method:
Human DPCs were stained with DCFDA‐cellular ROS assay kit (Abcam, ab113851) for 40 min at 37°C in a humidified environment at 5% CO2. Then, live cell imaging was performed with a filter set appropriate for fluorescein (FITC) (n = 3, each group). Low light conditions were maintained to avoid photobleaching and photo‐oxidation of DCF.

Assay [4] deals with bone marrow stem cells (BMSCs). Nature of the assay: Mouse subcutaneous ex vivo transplantation (HA/TCP, PCL), BMSCs. It counts as in vivo, immunocompromised mice. The note with it: rCPNE7 treatment. On the procedure: as §1
Assay [5] relates to hDPCs. The assay is described as follows: Comet assay. Type of assay: cell-based, human. The note with it: 24 h, 1 mM H2O2 + rCPNE7, vs H2O2 only, n = 3. Here is the method:
Human DPCs were combined with Comet Agarose (Abcam, ab238544) at 1/10 ratio (v/v), mixed by pipetting, and immediately transferred onto the top of the Comer Agarose Base Layer Slide (Abcam, ab238544). Set horizontally, the slides were incubated at 4°C in the dark for 15 min, and placed in a small basin/container containing pre‐chilled Lysis Buffer (Abcam, ab238544). They were immersed in the buffer for 1 h at 4°C in the dark. After 1 h, aspiration of the Lysis Buffer from the container was done and replaced with a pre‐chilled Alkaline Solution (Abcam, ab238544), followed by electrophoresis chamber filled with the Alkaline Electrophoresis Solution. Voltage was applied to the chamber for 30 min at 1 volt/cm. The slides were then rinsed with pre‐chilled DI H2O and replaced with cold 70% Ethanol for 5 min. The slide was removed from the 70% Ethanol and allowed to air dry. Once the slide was completely dry, staining with Vista Green DNA Dye (Abcam, ab238544) was done at room temperature for 15 min. Cells were visualized using confocal microscopy (LSM980, Zeiss, Germany) (n = 3, each group).

For assay [6], the system named is gingival fibroblasts (GFs). Nature of the assay: Mouse subcutaneous ex vivo transplantation (HA/TCP, PCL), GFs. Type of assay: in vivo, immunocompromised mice. Here is the method: as §1, §2
Assay [7] concerns human dental pulp cells (hDPCs). The assay is described as follows: Live-cell imaging of hDPC morphology with or without rCPNE7. It counts as cell-based. The note with it: rCPNE7 100 ng/mL for 24 h, then differentiation media 7 days, vs control, n = 3. On the procedure: (§3) The hDPCs were obtained from the Seoul National University Dental Hospital, and the experimental protocol was accepted by the Institutional Review Board of the Seoul National University (S‐D20140007). Informed consent was obtained from patients. Human DPCs were isolated and used in an in vitro experiment as described previously (Jung et al., [2011]). Human DPCs were cultured in minimum essential medium α (Gibco BRL, 12571063) supplemented with 10% heat‐inactivated fetal bovine serum (FBS; Gibco BRL, 16000044) and antibiotic‐antimycotic (Gibco BRL, 15240062) at 37°C in an atmosphere with 5% CO2. The cells were then treated with recombinant CPNE7 protein (rCPNE7, 100 ng/mL; Origene, TP306428) or CPNE7‐derived peptide (CPNE7‐DP, 10 μg/mL). After oxidative stress‐induced DNA damage using Hydrogen Peroxide Solution (H2O2; Merck, H1009) rCPNE7 was treated after replacement with a new culture medium (α‐MEM).
The morphologic change of hDPCs treated with or without rCPNE7 was measured by live‐cell imaging (n = 3, each group). After being treated with rCPNE7 for 24 h, the cells were differentiated for 7 days and scanned for 2 days. Bright‐field images of the cells were acquired using a confocal laser scanning microscopy system (LSM980, Zeiss, Germany). […] Timelapse images collected from a single Z plane were recorded at 8‐min intervals.

The next assay relates to dentinal damage sites. The note with it: treated onto dentinal damage sites; ref Lee et al., [2020]; cited from earlier work. The text has this:
However, little is known about how odontoblasts age and survive through the days beyond entering dormancy, which actually comprise the major part of their life span. Aging is defined as a gradual loss of physiologic tissue integrity and impaired function, ultimately leading to cell death. Aged pulp is characterized by lower cell population, pulp stem cell tiredness, and, overall, reduced responsiveness to external stimuli (Bernick & Nedelman, [1975]). It has been reported that one of the survival mechanisms of aging odontoblasts is autophagy, which involves degradation and turnover of cellular ...

The test system of assay [8] is adipogenic stem cells (ADSCs). Nature of the assay: Mouse subcutaneous ex vivo transplantation (HA/TCP, PCL), ADSCs. Type of assay: in vivo, immunocompromised mice. The note with it: adipose stem cells, rCPNE7 treatment. On the procedure: as §1
Assay [9] deals with hDPCs. The assay is described as follows: RNA-sequencing of rCPNE7-treated hDPCs. Type of assay: cell-based, human. The note with it: n = 3. On the procedure:
The isolated RNA (n = 3, each group) was shipped to Macrogen (Seoul, Korea) for the library preparation, sequencing, and analysis of data. The cDNA Library for sequencing was prepared using TruSeq Stranded mRNA LT Sample Prep Kit. Total RNA was randomly fragmented, converted to complementary DNA (cDNA), and amplified according to the manufacturer's protocol. The cDNA was then ligated to sequencing adapters. Sequencing was performed on Illumina's HiSeq2500 platform. HISAT2 was used for mapping trimmed reads to reference genome (UCSC mm10), and the transcript assembly was performed using StringTie. To identify differentially expressed genes (DEGs), the expression profile was calculated for each sample and normalized to FPKM. KEGG database and Gene Ontology were used to perform functional annotation and gene‐set enrichment analysis on DEGs for known gene annotation. Genes with |fc| 1.5 and independent T‐test raw p‐value <0.05 were counted as significant.

Assay [10] relates to hDPCs. The assay is described as follows: γ-H2AX immunofluorescence in hDPCs. The note with it: rCPNE7 after 30 min of 1 mM H2O2, vs H2O2 only. Type of assay: cell-based, human. On the procedure:
Human DPCs and tissue sections were treated with phosphate‐buffered saline (PBS) and 0.5% Triton X‐100 for permeabilization. After washing and blocking, cells and tissue samples were incubated overnight at 4°C with γ‐H2AX (1:100, Cell Signaling Technology, #9718) and CPNE7 (1:100) in blocking buffer (PBS and 2% bovine serum albumin). Subsequently, FITC‐conjugated anti‐rabbit secondary antibody (1:500) or Cy3‐conjugated anti‐rabbit (1:500) was applied. Cells were visualized using confocal microscopy (LSM980, Zeiss, Germany). The chromosomal DNA in the nucleus was stained with 4′,6‐diamidino‐2‐phenylindole (DAPI). The microtubules were detected using α‐TUBULIN antibodies (1:1000; Santa Cruz), and F‐ACTIN was stained with Alexa Fluor 488 or rhodamine‐conjugated phalloidin (Invitrogen). Flag‐tagged rCPNE7 was detected using Flag‐antibodies (1:500; Sigma–Aldrich), and TAU was detected by TAU antibodies (1:100; CUSABIO). Immunofluorescence staining of TAU, F‐ACTIN, and α‐TUBULIN was analyzed using the IMARIS cell imaging software (Bitplane) (n = 3, each group).

Assay [11] concerns hDPCs. Nature of the assay: Mouse subcutaneous ex vivo transplantation (HA/TCP, PCL), hDPCs. Also noted: species or system human cells in immunocompromised mice. The note with it: hDPCs + 100 mg HA/TCP with rCPNE7 100 ng/mL in PCL, 6 weeks, vs control, n = 3. On the procedure: as §1
Assay [12] relates to shCpne7-transfected hDPCs. Nature of the assay: DNA damage rescue model in shCpne7-transfected hDPCs (western blot). Type of assay: cell-based, human. The note with it: hDPCs treated after shCpne7 transfection; rCPNE7 100 ng/mL or CPNE7-DP 10 μg/mL. Here is the method:
as §3, with “(α‐MEM). […]” for “(α‐MEM).”
Cellular proteins (30 μg) were separated by 10% or 15% sodium dodecyl sulfate‐polyacrylamide gel electrophoresis (SDS‐PAGE) and transferred to polyvinylidene fluoride (PVDF) membranes. […] Labeled protein bands were detected under an enhanced chemiluminescence system (Amersham Biosciences/GE Healthcare). […] Semi‐quantitative analyses were performed using Image J software (National Institute of Health, MD, USA) (n = 3, each group).

Assay [13] deals with hDPCs. Nature of the assay: Senescence β-galactosidase (SA-β gal) staining of H2O2-treated hDPCs. Type of assay: cell-based, human. Here is the method:
as §3
Human DPCs were fixated with Fixative Solution (Cell Signaling Technology, #9860) at room temperature for 15 min. Rinsed twice with PBS, the cells were then stained with β‐Galactosidase Staining Solution (Cell Signaling Technology, #9860) at 37°C overnight in a dry incubator (no CO2). Cells were observed using light microscopy (Primovert, Zeiss, Germany) (n = 3, each group).

Assay [14] deals with hDPCs.

B1: rCPNE7: recombinant CPNE7 protein (Origene, TP306428) (protein, UniProt Q9UBL6 1-633, looked up)
Copine-7: MSAGSERGAAATPGGLPAPCASKVELRLSCRHLLDRDPLTKSDPSVALLQQAQGQWVQVGRTEVVRSSLHPVFSKVFTVDYYFEEVQRLRFEVYDTHGPSGFSCQEDDFLGGMECTLGQPAQKWLLQVVMRVSVDVLGPAGHCAKHFLCCTESSHLARTGPSFLLRYDDLCLPWATAGAVRWWTCRGGHTQGWQIVAQKKVTRPLLLKFGRNAGKSTITVIAEDISGNNGYVELSFRARKLDDKDLFSKSDPFLELYRVNDDQGLQLVYRTEVVKNNLNPVWEAFKVSLSSLCSCEETRPLKCLVWDYDSRGKHDFIGEFSTTFEEMQKAFEEGQAQWDCVNPKYKQKRRSYKNSGVVVLADLKFHRVYSFLDYIMGGCQIHFTVAIDFTASNGDPRNSCSLHYINPYQPNEYLKALVSVGEICQDYDSDKRFSALGFGARIPPKYEVSHDFAINFNPEDDECEGIQGVVEAYQNCLPRVQLYGPTNVAPIISKVARVAAAEESTGKASQYYILLILTDGVVTDMADTREAIVRASRLPMSIIIVGVGNADFTDMQVLDGDDGVLRSPRGEPALRDIVQFVPFRELKNASPAALAKCVLAEVPKQVVEYYSHRGLPPRSLGVPAGEASPGCTP
With B1, in the assay with hDPCs [1], the “protein expression level of γ-H2AX (western blot)” value is on record as “hardly detected”. Moreover, the “amount of newly formed DSP-positive mineralized tissue” value in [2] (PDLSCs + HA/TCP with rCPNE7 in PCL spaces, 6 weeks, vs control, n = 3) was “slightly greater amount”; in assay [6] (GFs + HA/TCP with rCPNE7 in PCL spaces, 6 weeks, vs control, n = 3) it was “slightly greater amount”. Also, the “odontoblastic differentiation upon treatment” value in assay [2] (PDLSCs, rCPNE7 treatment) is recorded as “did not undergo odontoblastic differentiation”; in assay [4], “did not undergo odontoblastic differentiation”; in [6] (GFs, rCPNE7 treatment), “did not undergo odontoblastic differentiation”; in assay [8] it was “did not undergo odontoblastic differentiation”. Besides, the “intracellular ROS level (DCFDA fluorescence)” value in the assay on hDPCs [3] is recorded as “gradually decreased back to the normal level”. In addition, in the assay on hDPCs [5], the “length of comet tail (fragmented DNA)” value is “much shorter”. In addition, the cellular process morphology entry in assay [7] is recorded as “elongation of a uni‐directional cellular process was observed”. The “dentin formation at dentinal damage sites” value with dentinal damage sites is reported as “tertiary dentin formation of tubular nature”. Moreover, the “mRNA expression levels of histone and chromatin-related genes” value with hDPCs [9] was “significantly increased”. Besides, the “accumulation of DNA damage (γ-H2AX immunofluorescence)” value in the assay on hDPCs [10] is given as “rarely observed”. The “odontoblast-like differentiation and dentin-like tissue-forming capacity ex vivo” value in the assay with hDPCs [11] was “enhanced odontoblast‐like differentiation and dentin‐like tissue‐forming capacity”. For the same molecule, the “expression level of γ-H2AX (western blot)” value in assay [12] is “evidently diminished”. Besides, the “progress of cellular senescence (SA-β gal)” value in the assay with hDPCs [13] (hDPCs in growth media containing rCPNE7 for 72 h after oxidative stress (1 mM H2O2) for an hour, vs control) is “progressed more slowly than the control”. In addition, in the assay with hDPCs [13] (hDPCs passage 3, 1 mM H2O2 + rCPNE7, an hour later, vs H2O2 only, n = 3), the “number of SA-β gal-positive dental pulp cells” value is listed as “significantly decreased”. Moreover, in the assay on hDPCs [14] (rCPNE7 after 30 min treatment of 1 mM or 2 mM H2O2, 48 h, vs H2O2 only), the “cell viability (WST-8)” value is reported as “cell viability was higher”. Besides, the “cell-to-cell contact (light microscopy)” value with hDPCs [14] (rCPNE7 after 30 min treatment of H2O2, vs H2O2 only) was “more organized”.
